# In the supplement of paper PMC9170038:
# System: MS2 coat protein
# Test: apparent KD of MS2 coat protein; designed switch direction (-1 OFF switch, 1 ON switch): 1; higher = weaker reporter binding
# Outline: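 Transcription of designed RNA switches on Illumina chips was done by stalled E. coli RNA polymerase. SNAP-549-labelled MS2 coat protein was then titrated in doubling steps from 0.7 or 1.5 nM to 3 µM, with steps of 0.8–1.5 h at the lowest and 10–20 min at the highest concentration. The per-design median over clusters of curve-fitted normalised fluorescence is reported as apparent KD.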
# [1] = Eterna round: R95, input ligand: FMN 200 uM
# [2] = Eterna round: R95, input ligand: microRNA oligo, concentration not stated
# [3] = Eterna round: R95, input ligand: none
# [4] = input ligand: microRNA oligo, concentration not stated
Sequence,apparent KD of MS2 coat protein [1],apparent KD of MS2 coat protein [2],apparent KD of MS2 coat protein [3],apparent KD of MS2 coat protein (input ligand: FMN 200 uM),apparent KD of MS2 coat protein [4],apparent KD of MS2 coat protein (input ligand: none)
UUAUAACAUGAGGAUCACCCAUGUCAACAAAGUCGAGGAUAUGGGCAAUUAUUAUAAGAACCAGAAGGCGAAUAUU [Mat - Same State 1 - Mod of UCT - D32] (puzzle: Same State 1),35.5 nM,342 nM,230 nM,–,–,–
"UCCGCUAUCUAGAAGGAUAUGCGUAUAUAAACAUGAGGAUCACCCAUGUACCGGCGAAAACCGGUGCAGAAGGUUUAGCUAGUGA [Rediin] (Eterna round: R96, puzzle: Same State 2)",–,–,–,69.8 nM,298 nM,359 nM
"AUUUUUAAUGCAGGAUAUGAUUAACAUGAGGAUCACCCAUGUGGUGUUGUGAGUAAGGAGAGUGAUCAGAAGGGCAUUUUUUUG [JMF's solution 90] (Eterna round: R96, puzzle: Same State NG 2)",–,–,–,753 nM,287 nM,458 nM
"AGCACGGGAUUGGAGGAUAUGUUGUUUGCAACAUGAGGAUCACCCAUGUCUGAGGCUGAAAAGCAGCAGAAGGCCGAUACAACCA [SS2-1.2] (Eterna round: R96, puzzle: Same State 2)",–,–,–,60.1 nM,154 nM,198 nM
"AAGAAACAUGAGGAUCACCCAUGUAAUAAUAUGGGAGGAUAUACAAGGACAAUAGUCAAGGUAGAAGGCCUAAGAA [Mat - Same State 1 - Meechl mod - D142] (Eterna round: R96, puzzle: Same State 1)",–,–,–,–,123 nM,–
"GGUAUCGACGCAGGAUAUGCUAUCCUUUGGGUAGCAGAAGGGUGGACAUGAGGAUCACCCAUGUGGGUGCCAGGGCGUGAGCCC [JL SSNG1 1.83] (Eterna round: R96, puzzle: Same State NG 1)",–,–,–,283 nM,12.8 nM,440 nM
"GUUCGUUUGAUAGGAUAUCGCUUAACAUGAGGAUCACCCAUGUUUACCACGCUGGUUUUUCGUACCGAGAAGGAUUCUGAUGAU [JL JR sub007 mod 1] (Eterna round: R96, puzzle: Same State NG 2)",–,–,–,37.9 nM,43.6 nM,47.1 nM
"AAUUAAGAUCGAGGAUAUCACGUCGUUUAGACGUGAGAAGGCGAUCAUAACAUGAGGAUCACCCAUGUAUUACAUGAAUUAAUU [SSNG1/4-B3] (Eterna round: R96, puzzle: Same State NG 1)",–,–,–,20.6 nM,26.6 nM,29.1 nM
"GCCGGCUGGUGAGGAUAUGGCACCUUAUUGGUGCCAGAAGGCAUGUCAAUUGACAUGAGGAUCACCCAUGUAUUAUGGUUGGCG [salish99_SSNG1_r04_606] (Eterna round: R96, puzzle: Same State NG 1)",–,–,–,567 nM,63.2 nM,85.4 nM
"AAACCACAUGAGGAUCACCCAUGUAAAAAUAUGGGAGGAUAUCGGAAUAAAAUAAAGAAACGAGAAGGCCUAAAAA [59%, Flamingo, 5] (Eterna round: R96, puzzle: Same State 1)",–,–,–,26.6 nM,212 nM,256 nM
"GGUAGGUUACUACCAAUCUACAUGAGGAUCACCCAUGUGUGGAAGGAUAUGGUACCUAUUUGGUACCAGAAGGUCCAAUUAAUU [Fiskers NG3ss - 7] (Eterna round: R96, puzzle: Same State NG 3)",–,–,–,179 nM,64.7 nM,153 nM
"UUAAUGAUGUAAGGAUAUACAUGAGGAUUUCUCGUAGAAGGUACAGGACAUGAGGAUCACCCAUGUGUCGCUCAGAAGAGCGUA [Mat - Same State NG 1 - JL mod - D17] (Eterna round: R96, puzzle: Same State NG 1)",–,–,–,509 nM,505 nM,636 nM
"AUAGUUGCCGAAGGAUAUGAUGAUGAUCACACAUCAGAAGGUCGGCUAUUGGGUGGACAUGAGGAUCACCCGUGUUCUUUGGUC (Eterna round: R96, puzzle: Same State NG 1)",–,–,–,96.1 nM,79.5 nM,103 nM
"AGCUAGUACGAAGGAUAUACAAACAUGAGGAUCACCCAUGUAUACAUGGUUAGAUGUGACUACAUGUAGAAGGUCGUACUAGCA [SameState NG2 #15] (Eterna round: R96, puzzle: Same State NG 2)",–,–,–,225 nM,331 nM,443 nM
CAAACUUAGUAGGGUAGGUACCCAGGAUGACAUGAGGAUCACCCAUGUAAGAGCUUUUUGCUCGUCAUUAACAGUUG [JR_SHM208a_Sub018] (puzzle: Sensor for hsa-mir-208a),57.5 nM,102 nM,74.5 nM,–,–,–
"GUGGUCAGACAUGAGGAUCACCCAUGUGGAAUAAAUAACGGUGAGGAUAUGGAAUAUAGGAUAUACUAGAAGGCAUGAUUGGUG (Eterna round: R96, puzzle: Same State NG 3)",–,–,–,91.5 nM,76.9 nM,92.3 nM

Sequence,apparent KD of MS2 coat protein [1],apparent KD of MS2 coat protein [2],apparent KD of MS2 coat protein [3],apparent KD of MS2 coat protein (input ligand: FMN 200 uM),apparent KD of MS2 coat protein [4],apparent KD of MS2 coat protein (input ligand: none)
"ACAUAGGGAACAGGAUAUGGGAAAAUUCCCUACAUGAGGAUCACCCAUGUCCGUAGGGACAACAUCCAGAAGGGUUACCACAUA [Eternabot solution 1] (Eterna round: R96, puzzle: Same State NG 2)",–,–,–,211 nM,549 nM,656 nM
UAACAACAUAUAGAACAAGCGUGCUCGUCACAUGAGGAUCACCCAUGUCUAAGCGCUGUACCUACAUCCUCAGCGCC [Raononbeen] (puzzle: Sensor for hsa-mir-208a),105 nM,29.2 nM,96.4 nM,–,–,–
UGUCCAGCCUGAGCUGGACAAAAGCAUGUACAUGAGGAUCACCCAUGUUCAUGUACAAGCUUUUUGCUCGUCUUAAA [salish99_208a_r3_030] (puzzle: Sensor for hsa-mir-208a),325 nM,14.7 nM,370 nM,–,–,–
"GCUCGGCUGAUGGCCUACAUGAGGAUCACCCAUGUGACUGGGCAGGAUAUCUAGAUGCAGGAUGUAGAGAAGGGCCUGCCGAGC [SameState NG3 #42] (Eterna round: R96, puzzle: Same State NG 3)",–,–,–,704 nM,224 nM,458 nM
"AUUAUUUAUGCAGGAUAUGAUUAACAUGAGGAUCACCCAUGUGGUGUUGUGAGUAAGGAGAGUGAUCAGAAGGGCAUUUUUUCU [JMF's solution 55] (Eterna round: R96, puzzle: Same State NG 2)",–,–,–,460 nM,361 nM,490 nM
"GGAAUAUGAUGUUACAUGAGGAUCACCCAUGUAGUAAUAACUAAGGAUAUCUGUUAUGAUUAAUAAGAGAAGGUAGGAUCAUAA [AK SSNG3-V2-9] (Eterna round: R96, puzzle: Same State NG 3)",–,–,–,23.6 nM,19 nM,25.8 nM
GCAGUACACGCAGAGGAUAUGUCGGUAACGACAUGAGGAUCACCCAUGUGUACGGAAGUACUCAGACAGAAGGCUGUGUACUGCU [Same State 2 - Hyphema v.3] (puzzle: Same State 2),19.4 nM,79.1 nM,96.2 nM,–,–,–
AGUCCAGCAUAAGCUGGACAAAAGCAUGUACAUGAGGAUCACCCAUGUCAUGUACAAGCUUUUUGCUCGUCUUAAUA [Mat - hsa-mir-208a - Mod of JL - D36] (puzzle: Sensor for hsa-mir-208a),446 nM,19.8 nM,500 nM,–,–,–
"AGCUAGUACCGAGGAUAUACAUACAUGAGGAUCACCCAUGUAUACAUGAAUAAAUGAGACUACAUGUAGAAGGCGGUACUAGCA [Mat - Same State NG 2 - JL mod - D47] (Eterna round: R96, puzzle: Same State NG 2)",–,–,–,–,48.8 nM,–
"GUGGCCUAGGCACAGGAUAUGUUGCUCGUAACAUGAGGAUCACCCAUGUGCCUAUGAGAUUUAAUGCAGAAGGGUGCACGCCACG [Edbeso] (Eterna round: R96, puzzle: Same State 2)",–,–,–,14.3 nM,123 nM,139 nM
"GUUAAGAACUAAGGAUAUUGAAUACAUAUGUUUAACAUGAGGAUCACCCAUGUGGGUUGCGGUGUCGAGAAGGUAGAAUAAUAG [Mat - same State NG 2 - JL mod - D98] (Eterna round: R96, puzzle: Same State NG 2)",–,–,–,–,148 nM,–
"CUAAACAGAGGAGGAUAUGCAGAGGAUCACCCUGUAGAAGGCCACAGAGGAGGAUAUGCAGAGGAUCACCCUGUAGAAGGCCAC [pwkr ssNG DX.7] (Eterna round: R96, puzzle: Same State NG 1)",–,–,–,121 nM,210 nM,222 nM
"GAGCUCCAACGCGGAGCUCCACAUGAGGAUCACCCAUGUACACAGGAUAUCACUCCCUUUGGGAGUGAGAAGGGUGGUUCGGAA [Bebeave] (Eterna round: R96, puzzle: Same State NG 3)",–,–,–,41.4 nM,41.9 nM,58.6 nM
"UUUAUACAUGAGGAUCACCCAUGUCAACAAAGUCGAGGAUAUGGGCAUAUUAUCUUAUUUCCAGAAGGCGAAUUCU [salish99_ss1_r3_090] (Eterna round: R96, puzzle: Same State 1)",–,–,–,101 nM,305 nM,378 nM
"UUCACCUUUUUUUACAUGAGGAUCACCCAUGUUUACCCUACGUAGGAUAUCGAUGAAUGAUUGUACGAGAAGGACGUAGUAAGU [JR_SSND3_Sub057] (Eterna round: R96, puzzle: Same State NG 3)",–,–,–,19.1 nM,30.5 nM,36.1 nM
